Here are results for three substances from paper PMC4791394.

The test deals with taxol-stabilized microtubules. The experiment in a line: co-sedimentation; normalized COS7 lysates in PEM buffer incubated with taxol-stabilized microtubules with 2.5 mM AMP-PNP, RT 30 min; 100,000 x g 40 min through a taxol-supplemented cushion; supernatant and pellet blotted for KIF5 and tubulin.

“KIF5C(1-560)^S176A-3xmCit (from UniProt P28738 1-560) (domain or fragment)” gave a percent co-purified with microtubules of 100%. As for “KIF5C(1-560)^S176D-3xmCit (from UniProt P28738 1-560) (domain or fragment)”, the percent co-purified with microtubules was determined as 60%. Regarding “KIF5C(1-560)^WT-3xmCit (from UniProt P28738 1-560) (domain or fragment)”, the percent co-purified with microtubules was determined as 100%.
